B1: TPR t1 (parent)
chain: GACCAAUCUGCCCUCAGAGCUCGAGAACAUCUUCGGAUGCAGAGGAGGCAGGCUUCGGUGGCGCGAUAGCGCCAACGUCCUCAACCUCCAAUGCAUCCCACCACAUGAUGAUGCCUGAAGAGCCUUGGUUUUUUG

Variants of: B1
Test: polymerase ribozyme fitness, log enrichment relative to wild type (log ratio); higher = more active; in vitro selection for triplet polymerase activity
Procedure, shortened: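 Streptavidin-bead capture of gel-excised extended constructs, followed by RT-PCR, closed a single triplicate in vitro selection round. That round began by annealing PCR-built, transcribed mutant libraries of each subunit of a heterodimeric triplet polymerase ribozyme with a biotinylated primer, the partner subunit and triplets, then incubating them frozen at −7 °C. After Illumina sequencing of inputs and outputs, genotypes needed ≥10 input reads and ≥1 read per output. Fitness is the base-2 logarithm of genotype enrichment over wild-type enrichment, using inverse-variance-weighted replicate averages.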

Row | Variant | polymerase ribozyme fitness (log ratio)
1 | G36A U81A U125A | -2.6
2 | C34A G44A G48A U59A G61U C72U A121C C123G | -6
3 | G36C A50C G71A A118U G120A | -1.49
4 | A37U C56G | -1.11
5 | G35U C73G | -5.75
6 | A37G U96A | -3.44
7 | G36A C102A C104A G120U | -4.83
8 | G36U C97A | -0.428
9 | G36A G45C G58C C64G G117U | -6.11
10 | A37G G60U U112C C123G | -0.195
11 | G36C C49G C70U | -2.37
12 | G36C C53G C56A A95U | -2.45
13 | A37G C64U C73G U109A | -6.41
14 | G36A G61A A103C A118U | -5.74
15 | G36C C114A G120A | -2.49
16 | G35A C53U G57U G69A A83U C115U | -6.36
17 | G35A C85G U106G G120C | -4.02
18 | A37G G113C | -2.15
19 | A37G G113A | -1.4
20 | C34G U125A | -5.11
21 | A37C G60U C101G | -1.57
22 | A37G U55C C56A C88A | -4.55
23 | G36C A50U | -1.67
24 | G36C A50C G52A | -4.73

Row | Variant | polymerase ribozyme fitness (log ratio)
25 | C34A G57C | -2.62
26 | G35A C64A C114G U125G | -7.35
27 | A37C G48C U54C G113A | -2.76
28 | G35C U129G | -6.04
29 | A37C A118U | 0.469
30 | C34A U59A C114A | -5.37
31 | G35A U131A | -4.99
32 | G36C G61U C114A | -2.77
33 | C34A G128C | -4.73
34 | C34A G35U G48C | -3.95
35 | G36A C62U C72U | -0.886
36 | G35C C53G C56U U130A | -6.86
37 | G36U G44A G63A | -3.52
38 | A37G C70U C79A | -3.05
39 | G36A C49G G93A A95G | -3.09
40 | A37U C53U G58C A66U C76G U106C | -2.44
41 | G36A C123A | 0.117
42 | A37G G39C | -2.69
43 | C34A G120A | -2.29
44 | C34A G69A | -5.23
45 | C34U C53U U109G A119U A121C | -6.04
46 | G36U C40U A121U G122C | -0.484
47 | G35A C88U C102A | -5.27
48 | G36A C56A G61A | -2.16

Row | Variant | polymerase ribozyme fitness (log ratio)
49 | A37U C72G U78C A119U | -1.26
50 | C34A G42U C70G U81A C101A | -8.04
51 | C34U G117U | -5.02
52 | C34A G44A G48A G61U A121C C123G | -4.48
53 | G36U C40U G51U A68G C72U A111U A119C G120A | -8.09
54 | G36U G58C G71C A91U G120U | -4.22
55 | C34U U112A | -2.99
56 | C34A G60A | -3.35
57 | C34A G60U | -3.73
58 | A37U A83U U96A C124U U131A | 1.19
59 | A37C C49A G69U G77C C85A | -3.32
60 | A37C U54A G93C | -1.23
61 | G35U G63U | -6.36
62 | C34G G48U G122A | -7.95
63 | C34G G63U C72U G110U | -8.01
64 | C34U G45C C124G | -3.01
65 | A37U A83U U106A | 0.192
66 | A37G G47C C64U U87A G120C C124G | -3.3
67 | G35A C72U | -4.58
68 | G35A C72G | -2.69
69 | C34A U87A A105G | -6.02
70 | G35A G58C | -3.4
71 | A37C A75U C89U C102A | -2.92
72 | C34U C101U U112A | -6.92

Row | Variant | polymerase ribozyme fitness (log ratio)
73 | C34G U55C G58A C82A C85U C88A C123U U131G | -6.74
74 | G35A C70U | -2.72
75 | G36A C82U C123G | 0.9
76 | G36A U59A | -0.196
77 | A37G U92A | -2.8
78 | G36C A66G C72U | -3.78
79 | A37G A121G | 2.3
80 | G36U C72G C102U | -3.82
81 | G36U U132A | -0.893
82 | C34U G39C A50G | -5.57
83 | A37U C53A G63A C94G G120C U131A | -3.11
84 | A37G G44C G48U C73A | -2.25
85 | C34A G52A U96C C124A | -1.41
86 | G36A C70U C76A C85U | -3.99
87 | G35U C73U U112C | -2.9
88 | G36U U78G C115G | -4.29
89 | C34U C56A | -5.06
90 | C34A U116C | -5.3
91 | A37C G42U G48C A50U C70U G120U C124U | -3.73
92 | A37C C56G | -1
93 | G36A C85G U131C | -2.08
94 | C34G G51U C53A G69U G120U | -7.39
95 | C34A G36C A46G G93U A119G | -3.14
96 | G36U G71C | -1.92

Row | Variant | polymerase ribozyme fitness (log ratio)
97 | C34A U54A | -1.22
98 | C34U U106C | -3.99
99 | C34U U106A | -4.95
100 | C34U C86A C114U | -5.07
101 | C34U U59G A121C C124G | -3.59
102 | C34A C97G U125A | -3.42
103 | G36U C104U | -1.41
104 | A37C C49A A66C C104U U125G | -1.63
105 | G36A C89U C94G C114U | -5.66
106 | G35A A103G | -6.59
107 | G36C U54G C73A | -2.09
108 | G36U A103G | -4.73
109 | C34G C64U | -6.18
110 | A37U A91U U130A | -2.83
111 | A37C C56A U78C U130C | -0.27
112 | G36A C72U C85G C89U C94U | -2.78
113 | G36A G44U C72A C88A U106G G113C | -5.9
114 | G35A U78C | -3.74
115 | G36U C64U A119G | 0.0711
116 | G36C U87G U116A | -5.07
117 | G36U A50C A84U | -1.94
118 | C34A G113U | -5.39
119 | G35A A41C U54C C64A A84G C101U C123U | -7.59
120 | G35A C73A | -3.7

Row | Variant | polymerase ribozyme fitness (log ratio)
121 | A37G G42C | -1.89
122 | C34A G39U C56G | -3.08
123 | C34U G120A A121C | -4.71
124 | G36C G47A G110A G127U | -2.57
125 | G36U G48U | -2.23
126 | G36U G48A | -1.52
127 | G36A A43U C62U G113A | -3.5
128 | C34G C72A U106G A119U | -7.42
129 | G35A C73G C80A A121G | -6.83
130 | G35A G69C | -4.88
131 | A37G U92C U106C G110A | -3.53
132 | G35U G61U | -5.28
133 | G35A G42C C73U A84U C123U | -6.85
134 | G35C C86A C101U U109C C124G | -7.22
135 | C34U G44U | -4.41
136 | C34A U59A C115U A118U | -6.82
137 | G36U C49U C64U G113A C115U G128U | -6.05
138 | C34A G61U A111G | -2.85
139 | G35C G93A | -4.92
140 | G36U U112A | 0.888
141 | C34A G48A C73U C101A | -4.83
142 | G35A C88U C99A | -5.74
143 | G36A G51U G120A | -3.42
144 | G36C G60A | -0.627

Row | Variant | polymerase ribozyme fitness (log ratio)
145 | A37C U55G C76U A105U | -2.68
146 | G36A G57A G60U U131G | -0.901
147 | G36C C72G | -2.37
148 | G36C G61U C70G C80U U81A C88U C104A C114G | -6.29
149 | C34U A95C | -5
150 | G35C C49G U78A | -5.52
151 | A37C C64U U92G | -2.59
152 | A37C C40U U55C A91C | -3.28
153 | G36A U106A G117A | -1.88
154 | G36U A90G C97G U106C | -1.51
155 | C34U C124U | -2.06
156 | C34U C124A | -2.31
157 | A37G A84C | -0.444
158 | G36U A46G | -0.974
159 | A37C A95G | -0.966
160 | G36C C70U | -1.72
161 | A37C G63C G77C C88U A105U | -5.64
162 | C34A C124A | -1.1
163 | C34U C62A | -4.23
164 | A37G C56U | -0.0501
165 | C34U U54A | -4.44
166 | G36U G71U G117A | -4.25
167 | G36U C124G | 0.74
